Laboratory results published in patent publication US20240209100A1 (DIAGONAL THERAPEUTICS, published 2024).

B1: DGL310 (bispecific antibody, V domains shown)
V domain 1: QVQLVESGGGLVQAGGSLRLSCAASGRTFSKHAMGWFRQAPGKEREFVAAIDWSGGSTYYADSVKGRFTISRDNAKNTVYLQMDSLKPEDTAVYYCAADSYTDYAQLWLPELESEYDYWGQGTQVTVSS
V domain 2: EVQLVESGGGVAQAGGSLRLSCAASITSFSLNTMGYYRQLPGKQRELVAVESSSGITNYADSVKGRFTISRDGAKNTVFLQMNSLTPEDTAVYYCGGKLFGRDFWGQGTQVTVSS
B2: DGL316 (bispecific antibody, V domains shown)
V domain 1: B1 V domain 1
V domain 2: QVQLVESGGGLVQAGGSLRLSCAASGMFFSIGEMGWYRQAPGKQREMVARITRDGRINYADSVEGRFTASRNVAKTTLFLQMNSLKPEDTANYQCTVRRWDEEYWGKGTLVTVSD
B3: DGL311 (bispecific antibody, V domains shown)
V domain 1: QVQLVESGGGLVQAGGSLRLSCAASGRTFSSYTMGWFRQAPGKEREFVAAISWSAGRTYYADSVKGRFTISRDNAKNTVYLQMNSLKPEDTAVYFCAAEEAPDWAPIDCSGYGCLSLYDYWGQGTQVTVSS
V domain 2: B1 V domain 2
B4: DGL313 (bispecific antibody, V domains shown)
V domain 1: EVQLVESGGGLVQPGGSLRLSCAASGSIFSINAMGWYRQAPGKQREVVATSTGGGMTNYADSVKGRFTISRDNAKNTVYLQMNSLKPEDTAVYYCNADKDPFFPGDYWGQGTQVTVSS
V domain 2: B2 V domain 2
B5: DGL319 (bispecific antibody, V domains shown)
V domain 1: B4 V domain 1
V domain 2: QLQLVESGGGLVQAGGSLRLSCAASRSITFSHNVMGWYRQAPGKQRELVASIGSGGSTNYVDSVKGRATISRDNAKKTVYLQMNSLKPEDTAVYYCGVVVGVYRGSLGQGTQVTVSS
B6: DGL317 (bispecific antibody, V domains shown)
V domain 1: QVQLQESGGGLVQPGGSLRLSCAASGFIFSNWYMRWVRQAPGEGLEWVSSINSGGDDTDYADSVKGRFTISRDNAKGTLYLQMHSLKPEDTALYYCERGADRVRGQGTQVTVSS
V domain 2: B2 V domain 2
B7: DGL314 (bispecific antibody, V domains shown)
V domain 1: QVQLQESGGGLVQPGGSLRLSCAASGSIFSTKGLGWYRQAPGEQRELVAGISSAGWIFYTQSVKGRFTMSRDNAKNTVYLQMNSLKPEDTAVYYCNSAQSGVPLRSWGQGTQVTVAS
V domain 2: B2 V domain 2
B8: DGL304 (bispecific antibody, V domains shown)
V domain 1: QVQLVESGGGLVQAGGSLRLSCAASGRTFSSYDMGWFRQAPGKEREFVAALRWSGGSTSYADSVKGRFTISRDNAKNTVYLHMNSLKPEDTAVYYCAATLETDSGTYWADYWGQGTQVTVSS
V domain 2: QVQLQESGGGLVQPGGSLGLSCAASGIKISVNSMAWYRQAPGERREMVAVISSGGSAVYADSVKGRFTISRDNAKNMVYLQMNSLKPEDTAVYYCHPGSAAYRDYWGQGTQVTVSS
B9: DGL312 (bispecific antibody, V domains shown)
V domain 1: B8 V domain 1
V domain 2: B2 V domain 2
B10: DGL307 (bispecific antibody, V domains shown)
V domain 1: B3 V domain 1
V domain 2: B8 V domain 2
B11: DGL305 (bispecific antibody, V domains shown)
V domain 1: B4 V domain 1
V domain 2: B8 V domain 2
B12: DGL318 (bispecific antibody, V domains shown)
V domain 1: B8 V domain 1
V domain 2: B5 V domain 2
B13: DGL306 (bispecific antibody, V domains shown)
V domain 1: B1 V domain 1
V domain 2: B8 V domain 2
B14: DGL308 (bispecific antibody, V domains shown)
V domain 1: B8 V domain 1
V domain 2: B1 V domain 2
B15: DGL301 (bispecific antibody, V domains shown)
V domain 1: QVQLQESGGGLVQPGGSARLSCVASGIIFNDYHMGWYRQAPGKQRDLVAGITAGGSTTYADSVKGRFTISRDNAKHTVYLQMNNLSPEDTAVYYCNTFYNAILDWGKGTLVTVSS
V domain 2: QVQLVESGGGLVLPGESLRLSCVVSGTIDNINSMGWYRQAPGKQRELVAYITKLGSANYADSVEGRFTISRDNAKKTVHLQMNSLKPEDTAVYYCHANERGRITWAQGTQVTVSS
B16: DGL302 (bispecific antibody, V domains shown)
V domain 1: B1 V domain 1
V domain 2: B15 V domain 2
B17: DGL309 (bispecific antibody, V domains shown)
V domain 1: B15 V domain 1
V domain 2: B1 V domain 2
B18: DGL315 (bispecific antibody, V domains shown)
V domain 1: B15 V domain 1
V domain 2: B2 V domain 2
B19: DGL303 (bispecific antibody, V domains shown)
V domain 1: B6 V domain 1
V domain 2: B15 V domain 2

Biological target: T1, IL-18 receptor (IL-18Rα/IL-18Rβ) overexpressed on HEK-Blue IL-18 cells (Homo sapiens (Human), UniProt Q13478 19-541; O95256 20-599)
T1 sequence 1: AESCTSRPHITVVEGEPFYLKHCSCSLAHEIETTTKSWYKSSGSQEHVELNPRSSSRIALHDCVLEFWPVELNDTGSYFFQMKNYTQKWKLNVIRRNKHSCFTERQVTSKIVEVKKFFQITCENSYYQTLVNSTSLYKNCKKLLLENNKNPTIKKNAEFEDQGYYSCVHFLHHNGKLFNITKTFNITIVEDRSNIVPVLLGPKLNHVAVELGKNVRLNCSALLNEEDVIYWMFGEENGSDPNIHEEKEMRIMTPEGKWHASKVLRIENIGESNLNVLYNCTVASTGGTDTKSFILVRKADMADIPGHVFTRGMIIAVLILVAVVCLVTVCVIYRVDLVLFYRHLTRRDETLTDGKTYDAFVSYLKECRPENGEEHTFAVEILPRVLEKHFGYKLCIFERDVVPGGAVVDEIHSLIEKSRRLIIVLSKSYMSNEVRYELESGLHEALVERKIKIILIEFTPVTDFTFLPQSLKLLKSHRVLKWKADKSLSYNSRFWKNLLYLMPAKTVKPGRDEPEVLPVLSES
T1 sequence 2: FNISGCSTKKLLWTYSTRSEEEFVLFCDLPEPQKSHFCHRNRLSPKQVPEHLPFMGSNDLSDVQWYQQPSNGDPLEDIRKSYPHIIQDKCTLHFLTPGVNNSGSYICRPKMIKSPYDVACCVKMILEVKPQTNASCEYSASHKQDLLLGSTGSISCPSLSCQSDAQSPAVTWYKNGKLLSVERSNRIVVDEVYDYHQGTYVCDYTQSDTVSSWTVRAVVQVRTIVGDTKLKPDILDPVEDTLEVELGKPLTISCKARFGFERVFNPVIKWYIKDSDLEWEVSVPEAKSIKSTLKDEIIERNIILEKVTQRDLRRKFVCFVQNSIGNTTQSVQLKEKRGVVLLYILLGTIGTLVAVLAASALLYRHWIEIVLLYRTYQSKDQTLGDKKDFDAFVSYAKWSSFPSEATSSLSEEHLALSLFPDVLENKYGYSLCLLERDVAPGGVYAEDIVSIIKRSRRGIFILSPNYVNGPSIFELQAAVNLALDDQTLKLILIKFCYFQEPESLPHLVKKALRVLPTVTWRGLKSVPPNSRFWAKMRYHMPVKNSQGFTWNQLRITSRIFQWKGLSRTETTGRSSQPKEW
Assay: cell-based or functional assay

Binder | HEK-Blue IL-18: Abs 405 [Abs] | HEK-Blue IL-18: Fold over Background [fold]
B1 | 2.7 | 11.8
B2 | 0.58 | 2.5
B3 | 0.79 | 3.4
B4 | 0.62 | 2.7
B5 | 2.88 | 12.5
B6 | 0.99 | 4.3
B7 | 0.83 | 3.6
B8 | 1.32 | 5.7
B9 | 0.63 | 2.7
B10 | 0.35 | 1.5
B11 | 0.25 | 1.1
B12 | 2.23 | 9.7
B13 | 1.41 | 6.2
B14 | 1.48 | 6.4
B15 | 0.66 | 2.9
B16 | 1.18 | 5.2
B17 | 0.23 | 1
B18 | 0.58 | 2.5
B19 | 1.02 | 4.4
